According to patent US20150010589A1 (published 2015):

B1: recombinant GPVI (platelet glycoprotein VI) (receptor)
chain: QSGPLPKPSLQALPSSLVPLEKPVTLRCQGPPGVDLYRLEKLSSSRYQDQAVLFIPAMKRSLAGRYRCSYQNGSLWSLPSDQLELVATGVFAKPSLSAQPGPAVSSGGDVTLQCQTRYGFDQFALYKEGDPAPYKNPERWYRASFPIITVTAAHSGTYRCYSFSSRDPYLWSAPSDPLELVVTGTSVTPSRLPTEPPSPVAEFSEATAELTVSFTNEVFTTETSRSITASPKESDSPAGPARQYYTK
B2: recombinant Aegyptin (mature protein with C-terminal 6xHis tag, expressed in 293-F cells) (other)
chain: RPMPEDEEPVAEGGDDDASGESEGEEETTDDAGGDGGEEENEGEEHAGDKDAGGEDTGKEENTGHDDAGEEDAGEEDAGEEDAGEEDAGEEDAEKEEGEKEDAGDDAGSDDGEEDSTGGDEGEDNAEDSKGSEKNDPADTYRQVVALLDKDTKVDHIQSEYLRSALNNDLQSEVRVPVVEAIGRIGDYSKIQGCFKSMGKDVKKVISEEEKKFKSCMSKKKSEYQCSEDSFAAAKSKLSPITSKIKSCVSSKGRHHHHHH
B3: Aegyptin C-terminus-2 (137 aa), truncated form without GEEDA repeats (other)
chain: GGDEGEDNAEDSKGSEKNDPADTYRQVVALLDKDTKVDHIQSEYLRSALNNDLQSEVRVPVVEAIGRIGDYSKIQGCFKSMGKDVKKVISEEEKKFKSCMSKKKSEYQCSEDSFAAAKSKLSPITSKIKSCVSSKGR
notes: also called C-terminal-2; C-terminus 2 domain

Legend:
[1] = target: B2; experiment: SPR, Aegyptin injected over immobilized GPVI
[2] = target: T1, soluble collagen type I (pepsin-digested, non-fibrillar, triple helical; BD Biosciences) (human, UniProt P02452 179-1192; P08123 91-1104); experiment: SPR (Biacore T100), Aegyptin over immobilized collagen type I, 25 C, two-state reaction model; Ka1
T1 construct: domain: pepsin-digested, soluble non-fibrillar (tertiary structure, triple helical); also called collagen I; Coll-I

[3] = target: T2, soluble collagen type III (pepsin-digested, non-fibrillar; BD Biosciences) (human, UniProt P02461 168-1196); experiment: SPR (Biacore T100), Aegyptin over immobilized collagen type III, 25 C, two-state reaction model
T2 construct: domain: pepsin-digested, soluble non-fibrillar (tertiary structure, triple helical); also called collagen III
T2 sequence: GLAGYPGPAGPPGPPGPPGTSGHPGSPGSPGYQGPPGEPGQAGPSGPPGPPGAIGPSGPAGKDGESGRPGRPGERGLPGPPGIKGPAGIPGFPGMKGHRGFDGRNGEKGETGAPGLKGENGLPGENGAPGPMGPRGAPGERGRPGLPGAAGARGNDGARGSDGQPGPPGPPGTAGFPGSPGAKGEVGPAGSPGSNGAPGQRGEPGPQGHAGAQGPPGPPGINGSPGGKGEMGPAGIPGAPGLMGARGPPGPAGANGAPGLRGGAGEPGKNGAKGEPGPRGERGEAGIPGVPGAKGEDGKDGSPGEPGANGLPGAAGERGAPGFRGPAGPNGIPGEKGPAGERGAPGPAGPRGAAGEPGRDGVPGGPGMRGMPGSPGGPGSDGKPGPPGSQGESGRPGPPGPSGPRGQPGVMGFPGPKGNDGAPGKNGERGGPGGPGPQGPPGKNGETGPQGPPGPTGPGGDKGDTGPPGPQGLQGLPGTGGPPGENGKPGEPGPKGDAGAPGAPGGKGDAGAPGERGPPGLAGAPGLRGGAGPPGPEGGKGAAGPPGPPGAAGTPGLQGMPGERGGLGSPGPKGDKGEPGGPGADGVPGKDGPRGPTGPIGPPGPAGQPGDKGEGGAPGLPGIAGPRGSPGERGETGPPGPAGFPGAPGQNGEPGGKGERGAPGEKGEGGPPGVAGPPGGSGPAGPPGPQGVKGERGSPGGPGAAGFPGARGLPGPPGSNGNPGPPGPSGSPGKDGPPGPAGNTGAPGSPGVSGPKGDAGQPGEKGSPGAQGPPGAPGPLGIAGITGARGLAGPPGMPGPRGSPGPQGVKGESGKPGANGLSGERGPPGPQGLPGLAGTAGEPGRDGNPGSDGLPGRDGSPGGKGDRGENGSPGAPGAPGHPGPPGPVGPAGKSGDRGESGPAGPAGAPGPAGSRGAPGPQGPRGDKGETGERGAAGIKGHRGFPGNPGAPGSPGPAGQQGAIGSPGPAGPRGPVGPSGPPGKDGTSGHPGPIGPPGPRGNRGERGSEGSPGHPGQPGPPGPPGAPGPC

[4] = target: T3, heat-denatured soluble collagen type I (90 min at 98° C.) (human, UniProt P02452 179-1192; P08123 91-1104); experiment: SPR, Aegyptin over immobilized heat-denatured collagen I, two-state model; Ka1
T3 construct: domain: pepsin-digested, soluble non-fibrillar collagen, heat-denatured; Same material as soluble collagen I, denatured in a thermocycler before immobilization; also called Collagen denatured; heat-denatured collagen

[5] = target: T1, soluble collagen type I …; experiment: SPR kinetics at 15-40 C on immobilized collagen type I, van't Hoff analysis; value (±SE)
[6] = target: T1, soluble collagen type I …; experiment: SPR, Aegyptin over immobilized soluble collagen type I, 180 s at 30 µl/min, two-state model; Ka1
[7] = target: T2, soluble collagen type III …; experiment: SPR (Biacore T100), Aegyptin over immobilized collagen type III, 25 C, two-state reaction model; Ka1
[8] = target: T1, soluble collagen type I …; experiment: SPR, Aegyptin over immobilized soluble collagen type I, two-state model
[9] = target: T1, soluble collagen type I …; experiment: SPR, Aegyptin over immobilized soluble collagen type I, two-state model; Kd1
[10] = target: T1, soluble collagen type I …; experiment: SPR (Biacore T100), Aegyptin over immobilized collagen type I, 25 C, two-state reaction model
[11] = target: T1, soluble collagen type I …; experiment: SPR (Biacore T100), Aegyptin over immobilized collagen type I, 25 C, two-state reaction model; Kd1
[12] = target: T3, heat-denatured soluble collagen type I …; experiment: SPR, Aegyptin over immobilized heat-denatured collagen I, two-state model
[13] = target: T3, heat-denatured soluble collagen type I …; experiment: SPR, Aegyptin over immobilized heat-denatured collagen I, two-state model; Kd1
[14] = target: T2, soluble collagen type III …; experiment: SPR (Biacore T100), Aegyptin over immobilized collagen type III, 25 C, two-state reaction model; Kd1
[15] = target: T4, RGQOGVMGFO peptide GPC-(GPP)5-GPOGPSGPRGQOGVMGFOGPKGNDGAO-(GPP)5-GPC-NH2, cross-linked (O residues as printed (hydroxyproline); C-terminal amide (NH2); cross-linked (4° C. for 48 hours in PBS, or SPDP)); experiment: ELISA, inhibition of vWf (3 nM) binding to the coated RGQOGVMGFO peptide by Aegyptin (0.05-3 µM)
T4 construct: also called collagen type III vWf-related peptide

[16] = target: T1, soluble collagen type I …; experiment: SPR, C-terminus-2 (5-250 nM) over immobilized soluble collagen type I, two-state binding model

T3 sequence (P02452 179-1192 limits assumed, chain 1 of 2): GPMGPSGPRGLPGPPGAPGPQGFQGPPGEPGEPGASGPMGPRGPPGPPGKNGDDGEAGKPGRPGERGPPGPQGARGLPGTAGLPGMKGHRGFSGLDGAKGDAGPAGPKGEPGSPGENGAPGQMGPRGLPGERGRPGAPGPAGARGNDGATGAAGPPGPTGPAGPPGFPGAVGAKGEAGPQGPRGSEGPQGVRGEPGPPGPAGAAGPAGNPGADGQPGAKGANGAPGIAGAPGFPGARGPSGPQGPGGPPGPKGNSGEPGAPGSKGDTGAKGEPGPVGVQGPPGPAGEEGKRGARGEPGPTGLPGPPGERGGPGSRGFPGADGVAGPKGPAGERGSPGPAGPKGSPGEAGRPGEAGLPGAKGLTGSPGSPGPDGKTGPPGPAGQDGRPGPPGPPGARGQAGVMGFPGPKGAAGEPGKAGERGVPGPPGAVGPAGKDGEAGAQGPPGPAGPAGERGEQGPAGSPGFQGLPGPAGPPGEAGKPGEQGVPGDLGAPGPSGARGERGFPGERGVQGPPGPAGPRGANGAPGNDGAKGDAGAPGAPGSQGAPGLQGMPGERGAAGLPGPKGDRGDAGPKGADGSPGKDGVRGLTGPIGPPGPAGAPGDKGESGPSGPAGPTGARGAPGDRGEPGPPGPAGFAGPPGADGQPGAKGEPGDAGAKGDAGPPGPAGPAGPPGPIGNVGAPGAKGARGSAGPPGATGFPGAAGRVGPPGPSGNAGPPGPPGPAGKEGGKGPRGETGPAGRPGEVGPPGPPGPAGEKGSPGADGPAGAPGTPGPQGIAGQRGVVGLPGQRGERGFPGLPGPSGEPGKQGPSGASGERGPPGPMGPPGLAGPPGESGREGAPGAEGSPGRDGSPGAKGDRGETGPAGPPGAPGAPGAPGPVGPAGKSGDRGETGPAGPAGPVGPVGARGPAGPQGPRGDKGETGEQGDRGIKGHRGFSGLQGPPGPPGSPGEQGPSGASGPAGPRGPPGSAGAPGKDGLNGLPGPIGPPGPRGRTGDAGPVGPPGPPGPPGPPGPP
T3 sequence (P08123 91-1104 limits assumed, chain 2 of 2): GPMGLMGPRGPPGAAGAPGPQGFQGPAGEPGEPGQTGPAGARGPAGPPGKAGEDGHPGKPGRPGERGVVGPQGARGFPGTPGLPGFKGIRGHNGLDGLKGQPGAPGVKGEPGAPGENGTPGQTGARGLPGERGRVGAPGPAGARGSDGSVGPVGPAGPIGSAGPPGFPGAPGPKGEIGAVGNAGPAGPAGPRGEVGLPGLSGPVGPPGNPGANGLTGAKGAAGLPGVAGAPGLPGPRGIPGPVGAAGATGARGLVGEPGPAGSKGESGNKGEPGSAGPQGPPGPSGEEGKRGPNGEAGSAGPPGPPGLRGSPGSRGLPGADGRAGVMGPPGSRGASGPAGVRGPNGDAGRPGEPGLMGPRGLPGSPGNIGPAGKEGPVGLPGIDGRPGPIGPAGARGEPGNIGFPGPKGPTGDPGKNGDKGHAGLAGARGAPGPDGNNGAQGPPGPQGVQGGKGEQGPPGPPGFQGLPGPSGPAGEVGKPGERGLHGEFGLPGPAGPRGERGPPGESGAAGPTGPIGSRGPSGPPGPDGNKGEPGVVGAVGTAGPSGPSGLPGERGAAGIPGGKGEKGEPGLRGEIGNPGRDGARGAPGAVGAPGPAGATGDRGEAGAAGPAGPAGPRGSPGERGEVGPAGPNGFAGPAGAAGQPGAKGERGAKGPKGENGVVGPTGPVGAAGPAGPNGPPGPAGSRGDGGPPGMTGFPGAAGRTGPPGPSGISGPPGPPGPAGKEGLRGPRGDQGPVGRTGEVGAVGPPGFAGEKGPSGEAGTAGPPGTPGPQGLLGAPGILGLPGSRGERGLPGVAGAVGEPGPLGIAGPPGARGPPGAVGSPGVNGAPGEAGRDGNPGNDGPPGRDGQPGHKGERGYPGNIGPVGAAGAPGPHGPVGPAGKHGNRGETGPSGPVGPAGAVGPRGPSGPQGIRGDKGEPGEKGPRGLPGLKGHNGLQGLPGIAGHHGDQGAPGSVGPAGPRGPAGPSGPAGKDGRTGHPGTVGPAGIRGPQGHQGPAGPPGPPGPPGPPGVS
T1 sequence (P02452 179-1192 limits assumed, chain 1 of 2): as the sequence (P02452 179-1192 limits assumed, chain 1 of 2) above
T1 sequence (P08123 91-1104 limits assumed, chain 2 of 2): as the sequence (P08123 91-1104 limits assumed, chain 2 of 2) above

B1
binding result [1]: no binding (tested: 500 nM)

B2
kon [2]: 4.24e+06 M⁻¹ s⁻¹
Kd [3]: 1.4 nM
kon [4]: 6740 M⁻¹ s⁻¹
TΔS° [5]: 6.69 kcal/mol
ΔG° [5]: -11.5 kcal/mol
ΔH° [5]: -4.78 kcal/mol
ΔS° [5]: 95 J/(K*mol)
kon [6]: 3.63e+08 M⁻¹ s⁻¹
kon [7]: 2.49e+06 M⁻¹ s⁻¹
Kd [8]: 0.98 nM
koff [9]: 0.0103 s⁻¹
Kd [10]: 1.22 nM
koff [11]: 0.0154 s⁻¹
Kd [12]: 3.32 nM
koff [13]: 0.0188 s⁻¹
koff [14]: 0.00605 s⁻¹
IC50 [15]: ~300 nM

B3
Kd [16]: ~60 nM
